Tests used:
[1] = target: N2 A/Switzerland/8060/2017 (Influenza A virus (H3N2))
[2] = target: N2 A/HongKong/2671/2019 (Influenza A virus (H3N2))

1G01 Fab
Kd [1]: < 0.02 nM | Kd [2]: < 0.02 nM
